Assay results from paper PMC5536852.
Read-outs that look alike come from different tables or passages of the source.

Experiments:
[1] = target: PP1γ, active form (His-tagged protein phosphatase 1 gamma) (UniProt P36873); assay: enzyme inhibition kinetics
[2] = target: PP1γ, active form (His-tagged protein phosphatase 1 gamma) (UniProt P36873); assay: enzyme inhibition kinetics; remark: listed apart in the source

UniProt P36873, sequence (P36873 whole entry): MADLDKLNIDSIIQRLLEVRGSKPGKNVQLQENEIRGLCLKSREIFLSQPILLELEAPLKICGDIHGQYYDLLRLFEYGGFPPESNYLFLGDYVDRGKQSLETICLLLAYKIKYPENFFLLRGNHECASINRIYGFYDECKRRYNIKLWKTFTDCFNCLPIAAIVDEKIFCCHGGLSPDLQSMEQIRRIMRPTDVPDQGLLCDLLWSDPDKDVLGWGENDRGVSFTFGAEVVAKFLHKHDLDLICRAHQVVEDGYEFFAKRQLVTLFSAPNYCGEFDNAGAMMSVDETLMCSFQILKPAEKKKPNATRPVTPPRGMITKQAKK

Ki [1]: 350 nM | Ki [2]: 410 nM
Substance: His-tagged RRM1 (isolated RNA recognition motif 1 of SRSF1) (domain or fragment)
